Measured values published in patent publication US20110300138A1 (published 2011).
Read-outs that look alike come from different tables or passages of the source. Blank lines part the entries; values can stand above or below the molecule they belong to.

Tests used:
[1] = target: human TSHR (thyroid stimulating hormone receptor) expressed in transfected CHO cells (human) (UniProt P16473); assay: cell-based or functional assay
[2] = target: TSHR260-alkaline phosphatase (TSHR260-AP) (human) (UniProt P05187); assay: TSHR260-AP bridge ELISA, full length TSHR on wells; 1 µg/mL, diluted in HBD
[3] = target: TSHR260-alkaline phosphatase (TSHR260-AP) (human) (UniProt P05187); assay: TSHR260-AP bridge ELISA, full length TSHR on wells; 10 µg/mL, diluted in HBD
[4] = target: TSHR260-alkaline phosphatase (TSHR260-AP) (human) (UniProt P05187); assay: TSHR260-AP bridge ELISA, full length TSHR on wells; 0.1 µg/mL, diluted in HBD
[5] = target: TSHR260-alkaline phosphatase (TSHR260-AP) (human) (UniProt P05187); assay: TSHR260-AP bridge ELISA, full length TSHR on wells; 0.5 µg/mL, diluted in HBD
[6] = target: TSHR260-alkaline phosphatase (TSHR260-AP) (human) (UniProt P05187); assay: TSHR260-AP bridge ELISA, full length TSHR on wells; 100 µg/mL, diluted in HBD
[7] = target: TSHR260-alkaline phosphatase (TSHR260-AP) (human) (UniProt P05187); assay: TSHR260-AP bridge ELISA, full length TSHR on wells; 0.05 µg/mL, diluted in HBD
[8] = target: TSHR260-alkaline phosphatase (TSHR260-AP) (human) (UniProt P05187); assay: TSHR260-AP bridge ELISA, full length TSHR on wells; 10 µg/mL, diluted in assay buffer
[9] = target: TSHR260-alkaline phosphatase (TSHR260-AP) (human) (UniProt P05187); assay: TSHR260-AP bridge ELISA, full length TSHR on wells; 250 µg/mL, diluted in assay buffer
[10] = target: TSHR260-alkaline phosphatase (TSHR260-AP) (human) (UniProt P05187); assay: TSHR260-AP bridge ELISA, full length TSHR on wells; 0.05 µg/mL, diluted in assay buffer
[11] = target: TSHR260-AP (human); assay: TSHR260-AP bridge ELISA (full length TSHR on wells, TSHR260-AP in solution); IgG 1 µg/mL diluted in HBD serum
[12] = target: TSHR260-AP (human); assay: TSHR260-AP bridge ELISA (full length TSHR on wells, TSHR260-AP in solution); IgG 0.1 µg/mL diluted in HBD serum
[13] = target: TSHR260-AP (human); assay: TSHR260-AP bridge ELISA (full length TSHR on wells, TSHR260-AP in solution); IgG 0.5 µg/mL diluted in HBD serum
[14] = target: TSHR260-AP (human); assay: TSHR260-AP bridge ELISA (full length TSHR on wells, TSHR260-AP in solution); IgG 100 µg/mL diluted in HBD serum
[15] = target: TSHR260-AP (human); assay: TSHR260-AP bridge ELISA (full length TSHR on wells, TSHR260-AP in solution); IgG 250 µg/mL diluted in HBD serum
[16] = target: TSHR260-AP (human); assay: TSHR260-AP bridge ELISA (full length TSHR on wells, TSHR260-AP in solution); IgG 0.01 µg/mL diluted in HBD serum
[17] = target: TSHR260-AP (human); assay: TSHR260-AP bridge ELISA (full length TSHR on wells, TSHR260-AP in solution); IgG 1 µg/mL diluted in assay buffer
[18] = target: TSHR260-AP (human); assay: TSHR260-AP bridge ELISA (full length TSHR on wells, TSHR260-AP in solution); IgG 10 µg/mL diluted in assay buffer
[19] = target: TSHR260-AP (human); assay: TSHR260-AP bridge ELISA (full length TSHR on wells, TSHR260-AP in solution); IgG 0.005 µg/mL diluted in assay buffer
[20] = target: human TSH receptor (full length, wild type) expressed in CHO cells (human) (UniProt P16473); assay: cell-based or functional assay
[21] = target: human TSH receptor (full length, wild type) expressed in CHO cells (human) (UniProt P16473); assay: cell-based or functional assay; remark: listed apart in the source
[22] = target: human TSH receptor (full length, wild type) expressed in CHO cells (human) (UniProt P16473); assay: cell-based or functional assay; remark: listed apart in the source
[23] = target: human TSHR (wild type, full length) expressed in CHO cells (human) (UniProt P16473); assay: cell-based or functional assay
[24] = target: human TSHR (wild type, full length) expressed in CHO cells (human) (UniProt P16473); assay: cell-based or functional assay; remark: listed apart in the source

Cyclic AMP concentration; 3 ng/mL M22 IgG [1]: 21.3 pmol/mL
Mean absorbance at 405 nm (absorbance at 405 nm) [2]: 0.726
Mean absorbance at 405 nm (absorbance at 405 nm) [3]: 0.796
Mean absorbance at 405 nm (absorbance at 405 nm) [4]: 0.365
Mean absorbance at 405 nm (absorbance at 405 nm) [5]: 0.657
Mean absorbance at 405 nm (absorbance at 405 nm) [6]: 0.851
Mean absorbance at 405 nm (absorbance at 405 nm) [7]: 0.204
Mean absorbance at 405 nm (absorbance at 405 nm) [8]: 0.872
Mean absorbance at 405 nm (absorbance at 405 nm) [9]: 1.01
Mean absorbance at 405 nm (absorbance at 405 nm) [10]: 0.484
Mean absorbance at 405 nm (absorbance at 405 nm) [11]: 0.726
Mean absorbance at 405 nm (absorbance at 405 nm) [12]: 0.365
Mean absorbance at 405 nm (absorbance at 405 nm) [13]: 0.657
Mean absorbance at 405 nm (absorbance at 405 nm) [14]: 0.851
Mean absorbance at 405 nm (absorbance at 405 nm) [15]: 0.833
Mean absorbance at 405 nm (absorbance at 405 nm) [16]: 0.03
Mean absorbance at 405 nm (absorbance at 405 nm) [17]: 0.821
Mean absorbance at 405 nm (absorbance at 405 nm) [18]: 0.872
Mean absorbance at 405 nm (absorbance at 405 nm) [19]: 0.075
Molecule: M22 IgG (antibody)

% Inhibition; T4 serum + 100 µg/mL 5C9 IgG [20]: 97.6%
% Inhibition; T5 serum + 100 µg/mL 5C9 IgG [20]: 98.3%
% Inhibition; T6 serum + 100 µg/mL 5C9 IgG [20]: 97.8%
Cyclic AMP concentration; 100 µg/mL 5C9 IgG alone [20]: 1.2 pmol/mL
Cyclic AMP concentration; HBD + 100 µg/mL 5C9 IgG [20]: 1.8 pmol/mL
Cyclic AMP concentration; T4 serum + 100 µg/mL 5C9 IgG [20]: 1.9 pmol/mL
Cyclic AMP concentration; T5 serum + 100 µg/mL 5C9 IgG [20]: 1.1 pmol/mL
Cyclic AMP concentration; T6 serum + 100 µg/mL 5C9 IgG [20]: 1.8 pmol/mL
% Inhibition; T7 serum + 100 µg/mL 5C9 IgG [21]: 97.7%
% Inhibition; T8 serum + 100 µg/mL 5C9 IgG [21]: 97.9%
% Inhibition; T9 serum + 100 µg/mL 5C9 IgG [21]: 94.7%
Cyclic AMP concentration; HBD + 100 µg/mL 5C9 IgG [21]: 2.7 pmol/mL
Cyclic AMP concentration; T7 serum + 100 µg/mL 5C9 IgG [21]: 2.1 pmol/mL
Cyclic AMP concentration; T8 serum + 100 µg/mL 5C9 IgG [21]: 1.8 pmol/mL
Cyclic AMP concentration; T9 serum + 100 µg/mL 5C9 IgG [21]: 3 pmol/mL
% Inhibition; T10 serum + 100 µg/mL 5C9 IgG [22]: 98.4%
% Inhibition; T11 serum + 100 µg/mL 5C9 IgG [22]: 8.5%
% Inhibition; T12 serum + 100 µg/mL 5C9 IgG [22]: 96.3%
Cyclic AMP concentration; 100 µg/mL 5C9 IgG alone [22]: 0.9 pmol/mL
Cyclic AMP concentration; HBD + 100 µg/mL 5C9 IgG [22]: 1.1 pmol/mL
Cyclic AMP concentration; T10 serum + 100 µg/mL 5C9 IgG [22]: 0.9 pmol/mL
Cyclic AMP concentration; T11 serum + 100 µg/mL 5C9 IgG [22]: 37.5 pmol/mL
Cyclic AMP concentration; T12 serum + 100 µg/mL 5C9 IgG [22]: 1.6 pmol/mL
% Inhibition of T13 serum stimulation; 100 µg/mL 5C9 IgG [23]: 97.5%
% Inhibition of T14 serum stimulation; 100 µg/mL 5C9 IgG [23]: 94.9%
% Inhibition of T15 serum stimulation; 100 µg/mL 5C9 IgG [23]: 96.9%
Cyclic AMP concentration; 100 µg/mL 5C9 IgG alone [23]: 0.9 pmol/mL
Cyclic AMP concentration; HBD + 100 µg/mL 5C9 IgG [23]: 1 pmol/mL
Cyclic AMP concentration; T13 serum + 100 µg/mL 5C9 IgG [23]: 1.2 pmol/mL
Cyclic AMP concentration; T14 serum + 100 µg/mL 5C9 IgG [23]: 1.4 pmol/mL
Cyclic AMP concentration; T15 serum + 100 µg/mL 5C9 IgG [23]: 1.6 pmol/mL
% Inhibition of T8 serum stimulation; 0.01 µg/mL 5C9 IgG [24]: 0%
% Inhibition of T8 serum stimulation; 0.1 µg/mL 5C9 IgG [24]: 91%
% Inhibition of T8 serum stimulation; 1 µg/mL 5C9 IgG [24]: 96%
% Inhibition of T8 serum stimulation; 10 µg/mL 5C9 IgG [24]: 97%
% Inhibition of T8 serum stimulation; 100 µg/mL 5C9 IgG [24]: 97%
Cyclic AMP concentration; 0.01 µg/mL 5C9 IgG + T8 [24]: 53.7 pmol/mL
Cyclic AMP concentration; 0.1 µg/mL 5C9 IgG + T8 [24]: 4.6 pmol/mL
Cyclic AMP concentration; 1 µg/mL 5C9 IgG + T8 [24]: 2.2 pmol/mL
Cyclic AMP concentration; 10 µg/mL 5C9 IgG + T8 [24]: 1.7 pmol/mL
Cyclic AMP concentration; 100 µg/mL 5C9 IgG + T8 [24]: 1.7 pmol/mL
Cyclic AMP concentration; 100 µg/mL 5C9 IgG alone [24]: 1.2 pmol/mL
Mean absorbance at 405 nm (absorbance at 405 nm) [2]: 0.045
Mean absorbance at 405 nm (absorbance at 405 nm) [3]: 0.004
Mean absorbance at 405 nm (absorbance at 405 nm) [4]: -0.005
Mean absorbance at 405 nm (absorbance at 405 nm) [5]: 0.016
Mean absorbance at 405 nm (absorbance at 405 nm) [6]: 0.027
Mean absorbance at 405 nm (absorbance at 405 nm) [7]: -0.003
Mean absorbance at 405 nm (absorbance at 405 nm) [8]: 0.099
Mean absorbance at 405 nm (absorbance at 405 nm) [9]: 1.12
Mean absorbance at 405 nm (absorbance at 405 nm) [10]: -0.008
Mean absorbance at 405 nm (absorbance at 405 nm) [11]: 0.045
Mean absorbance at 405 nm (absorbance at 405 nm) [12]: -0.005
Mean absorbance at 405 nm (absorbance at 405 nm) [13]: 0.016
Mean absorbance at 405 nm (absorbance at 405 nm) [14]: 0.027
Mean absorbance at 405 nm (absorbance at 405 nm) [15]: 0.058
Mean absorbance at 405 nm (absorbance at 405 nm) [16]: 0.017
Mean absorbance at 405 nm (absorbance at 405 nm) [17]: 0.011
Mean absorbance at 405 nm (absorbance at 405 nm) [18]: 0.099
Mean absorbance at 405 nm (absorbance at 405 nm) [19]: -0.009
B1: 5C9 IgG (antibody, from another filing, V domains shown)
VH: EVQLVESGGGLIQPGGSLRLSCAASGFTVSSNYMSWVRQAPGKGLEWVSVTYSGGSTSYADSVKGRFTISRDNSKNTLYLQMNSLRAEDTAVYYCARGGRYCSSISCYARSGCDYWGQGTLVTVSS
VL: AIQMTQSPSSLSASVGDRVTITCRASQSISNYLNWYQQKPGKAPKLLIYAASSLQSGVPSRFSGSGSGTDFTLTISSLQPEDFATYYCQQSYSSPSTTFGQGTKLEIK
